Assay results taken from PMC5633906, “Introducing site-specific cysteines into nanobodies for mercury labelling allows de novo phasing of their crystal structures” (Acta Crystallographica. Section D, Structural Biology, 2017).

Target: T1, human complement component C5 (Homo sapiens, UniProt P01031)
T1 construct: complement C5 beta chain, human, cut product of the C5 precursor; complement C5 alpha chain, human, cut product of the C5 precursor; also called Human C5; C5 antigen; source: purified as described previously (Laursen et al., 2010; Schatz-Jakobsen et al., 2016)
Assay: BLI; Octet RED; histidine-tagged Nbs immobilised on Anti-Penta-HIS biosensors at 2.5 µg/ml; C5 62.5 to 2000 nM in PBS; association 700 s, dissociation 1800 s; global fit
Details: both partners purified

Row | Binder | Kd [µM]
1 | native Nb36 nanobody (VHH, Selected by phage display from a llama immunised with human C5; construct in pET-22b(+) with an N-terminal PelB signal for secretion into the periplasm; also called nonmodified Nb36; Nb36-Nat1; source: E. coli LOBSTR, purified (Ni Sepharose, Superdex 75); not shown: 6xHis, C-terminal, kept) VHH: QVQLVESGGGLVQAGGSLRLSCVVSGSAVSDYAMGWYRQAPGKQRELVAAIYNSGRTNYVDSVKGRFTISKDNAKKTVYLQMNSLKPEDTADYFCNLLGATTMSNAVWGQGTQVTVSS | ~0.086
2 | PCMB-labelled Nb36-C85 (VHH, as the VHH of m1 with Ser85Cys (position 82b in the Kabat nomenclature); Construct in pET-22b(+) with an N-terminal PelB signal for secretion into the periplasm; In the crystals the benzoate moiety of PCMB was not seen; also called Nb36 Ser85Cys labelled with PCMB; Hg-labelled Nb36-C85; source: E. coli LOBSTR, purified (Ni Sepharose, Superdex 75), labelled with PCMB; not shown: 6xHis, C-terminal, …) VHH: QVQLVESGGGLVQAGGSLRLSCVVSGSAVSDYAMGWYRQAPGKQRELVAAIYNSGRTNYVDSVKGRFTISKDNAKKTVYLQMNCLKPEDTADYFCNLLGATTMSNAVWGQGTQVTVSS | ~0.037
